Reference: patent US20190023807A1 (CRESCENDO BIOLOGICS, published 2019)

Legend:
[1] = target: T1, human PSMA (prostate specific membrane antigen), full-length, expressed on cells (human, UniProt Q04609 1-750); test: cell-based or functional assay
[2] = target: T1, human PSMA (prostate specific membrane …); test: cell-based or functional assay; remark: listed apart in the source

T1 sequence (Q04609 whole entry): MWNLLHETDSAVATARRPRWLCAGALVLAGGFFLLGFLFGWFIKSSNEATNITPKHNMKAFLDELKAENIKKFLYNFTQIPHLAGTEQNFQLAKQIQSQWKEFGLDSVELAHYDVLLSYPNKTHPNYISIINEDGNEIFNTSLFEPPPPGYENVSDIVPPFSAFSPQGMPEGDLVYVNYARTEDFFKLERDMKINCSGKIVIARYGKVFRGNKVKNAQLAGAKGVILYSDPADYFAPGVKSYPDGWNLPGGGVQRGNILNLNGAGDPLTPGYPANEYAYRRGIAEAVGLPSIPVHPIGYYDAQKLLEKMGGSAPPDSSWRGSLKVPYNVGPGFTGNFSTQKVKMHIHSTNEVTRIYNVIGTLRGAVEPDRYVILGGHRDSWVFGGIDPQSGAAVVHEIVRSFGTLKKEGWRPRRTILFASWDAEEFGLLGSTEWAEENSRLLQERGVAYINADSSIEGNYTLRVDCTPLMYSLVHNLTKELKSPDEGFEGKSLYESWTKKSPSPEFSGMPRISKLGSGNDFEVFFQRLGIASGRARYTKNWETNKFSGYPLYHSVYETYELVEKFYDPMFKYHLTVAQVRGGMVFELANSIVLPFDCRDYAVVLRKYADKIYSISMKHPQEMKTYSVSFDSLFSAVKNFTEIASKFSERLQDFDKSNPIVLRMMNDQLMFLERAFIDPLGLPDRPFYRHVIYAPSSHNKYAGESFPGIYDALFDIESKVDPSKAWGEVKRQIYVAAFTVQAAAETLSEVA

B1: HiPEG D-His6 val-cit-PAB-MMAE (other)
VH: EVQLLESGGGLVQPGGSLRLSCAASGFRISDEDMGWVRQAPGKGLEWVSSIYGPSGSTYYADSVKGRFTISRDNSKNTLYLQMNSLRAEDTAVYYCASALEPLSEPLGFWGQGTLVTVSSAAAHHHHHH
modifications: HiPEG val-cit-PAB-MMAE attached via the C-terminal His6 tag
[1]
  PSMA-DU145 cytotoxicity assay (72 h), IC50: > 100 nM
  PSMA-DU145 cytotoxicity assay (72 h), IC50 (toxin): > 100 nM
[2]
  cytotoxicity on PSMA-DU145, 48 h, Mean IC50: > 300 nM
